Source: article PMC10397247

Key:
[1] = molecular target: T1, 4H3070-bN; assay: two-hybrid library CCNG1; settings: mean of both orientations;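 also: natural log of median RNA to DNA barcode read ratio; higher means stronger binding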
T1 chain: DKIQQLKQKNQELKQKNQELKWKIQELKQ

[2] = molecular target: T2, 4H342-bN; assay: two-hybrid library CCNG1;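 also: natural log of median RNA to DNA barcode read ratio; higher means stronger binding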
T2 chain: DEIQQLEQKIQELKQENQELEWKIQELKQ

[3] = molecular target: T3, 4H2691-bN; assay: two-hybrid library CCNG1;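 also: natural log of median RNA to DNA barcode read ratio; higher means stronger binding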
T3 chain: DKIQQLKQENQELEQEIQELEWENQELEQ

[4] = molecular target: T4, 4H2619-bN; assay: two-hybrid library CCNG1;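 also: natural log of median RNA to DNA barcode read ratio; higher means stronger binding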
T4 chain: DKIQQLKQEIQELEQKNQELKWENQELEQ

[5] = molecular target: T5, 4H3632-bN; assay: two-hybrid library CCNG1;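 also: natural log of median RNA to DNA barcode read ratio; higher means stronger binding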
T5 chain: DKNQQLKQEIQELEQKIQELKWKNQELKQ

[6] = molecular target: T6, 4H496-bN; assay: two-hybrid library CCNG1;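 also: natural log of median RNA to DNA barcode read ratio; higher means stronger binding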
T6 chain: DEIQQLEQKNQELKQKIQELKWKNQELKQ

[7] = molecular target: T7, 4H145-bN; assay: two-hybrid library CCNG1; settings: mean of both orientations
T7 chain: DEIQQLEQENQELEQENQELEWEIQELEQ

[8] = molecular target: T8, Core_NIIN-es_KEKK; assay: two-hybrid library CCmax; settings: mean of both orientations
T8 chain: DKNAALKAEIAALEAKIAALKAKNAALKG

[9] = molecular target: T9, P6A-bP; assay: two-hybrid library CCNG1
T9 chain: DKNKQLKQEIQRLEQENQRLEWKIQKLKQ

[10] = molecular target: T10, P11A-bP; assay: two-hybrid library CCNG1
T10 chain: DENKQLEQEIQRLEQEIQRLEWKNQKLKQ

[11] = molecular target: T11, P12A-bP; assay: two-hybrid library CCNG1
T11 chain: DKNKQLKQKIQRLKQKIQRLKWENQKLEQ

[12] = molecular target: T12, P7A-bP; assay: two-hybrid library CCNG1
T12 chain: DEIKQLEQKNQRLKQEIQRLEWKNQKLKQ

[13] = molecular target: T13, P8A-bP; assay: two-hybrid library CCNG1
T13 chain: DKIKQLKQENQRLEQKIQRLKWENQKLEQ

[14] = molecular target: T14, P4A-bP; assay: two-hybrid library CCNG1
T14 chain: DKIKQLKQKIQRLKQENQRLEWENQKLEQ

[15] = molecular target: T15, P3A-bP; assay: two-hybrid library CCNG1
T15 chain: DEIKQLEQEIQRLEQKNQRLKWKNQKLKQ

[16] = molecular target: T16, P9A-bP; assay: two-hybrid library CCNG1
T16 chain: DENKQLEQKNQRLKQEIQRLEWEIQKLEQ

[17] = molecular target: T17, P2A-bP; assay: two-hybrid library CCNG1
T17 chain: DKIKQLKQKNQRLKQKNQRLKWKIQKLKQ

[18] = molecular target: T18, P5A-bP; assay: two-hybrid library CCNG1
T18 chain: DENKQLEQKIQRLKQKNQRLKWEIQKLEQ

[19] = molecular target: T19, P1A-bP; assay: two-hybrid library CCNG1
T19 chain: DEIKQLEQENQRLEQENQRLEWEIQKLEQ

[20] = molecular target: T20, O16-bN; assay: two-hybrid library CCNG1
T20 chain: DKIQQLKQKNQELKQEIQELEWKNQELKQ

[21] = molecular target: T21, O12-bN; assay: two-hybrid library CCNG1
T21 chain: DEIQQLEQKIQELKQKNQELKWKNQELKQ

[22] = molecular target: T22, O10-bN; assay: two-hybrid library CCNG1; settings: mean of both orientations
T22 chain: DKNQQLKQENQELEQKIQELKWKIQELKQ

[23] = molecular target: T23, O5-bN; assay: two-hybrid library CCNG1
T23 chain: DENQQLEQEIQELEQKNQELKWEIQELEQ

[24] = molecular target: T24, O11-bN; assay: two-hybrid library CCNG1
T24 chain: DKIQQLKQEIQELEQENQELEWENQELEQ

[25] = molecular target: T25, O3-bN; assay: two-hybrid library CCNG1
T25 chain: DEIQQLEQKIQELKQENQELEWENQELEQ

[26] = molecular target: T26, O6-bN; assay: two-hybrid library CCNG1
T26 chain: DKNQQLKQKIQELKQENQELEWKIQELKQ

[27] = molecular target: T27, O9-bN; assay: two-hybrid library CCNG1; settings: mean of both orientations
T27 chain: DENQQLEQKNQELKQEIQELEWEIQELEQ

[28] = molecular target: T28, O2-bN; assay: two-hybrid library CCNG1
T28 chain: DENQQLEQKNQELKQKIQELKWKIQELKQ

[29] = molecular target: T29, O7-bN; assay: two-hybrid library CCNG1
T29 chain: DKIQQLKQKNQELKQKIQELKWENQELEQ

[30] = molecular target: T30, O4-bN; assay: two-hybrid library CCNG1
T30 chain: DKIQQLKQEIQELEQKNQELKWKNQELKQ

[31] = molecular target: T31, O8-bN; assay: two-hybrid library CCNG1
T31 chain: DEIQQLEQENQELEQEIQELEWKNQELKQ

[32] = molecular target: T32, O13-bN; assay: two-hybrid library CCNG1
T32 chain: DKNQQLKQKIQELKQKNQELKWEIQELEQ

[33] = molecular target: T33, O15-bN; assay: two-hybrid library CCNG1
T33 chain: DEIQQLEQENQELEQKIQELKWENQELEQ

[34] = molecular target: T34, O14-bN; assay: two-hybrid library CCNG1
T34 chain: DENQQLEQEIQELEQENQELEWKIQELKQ

[35] = molecular target: T35, P2-AA-1HAA-S; assay: two-hybrid library CCmax; settings: mean of both orientations
T35 chain: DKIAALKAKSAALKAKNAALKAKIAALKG

[36] = molecular target: T36, P2-AA-1HAA-T; assay: two-hybrid library CCmax; settings: mean of both orientations
T36 chain: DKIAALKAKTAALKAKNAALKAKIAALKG

[37] = molecular target: T37, P2-AA-1HAA-E; assay: two-hybrid library CCmax; settings: mean of both orientations
T37 chain: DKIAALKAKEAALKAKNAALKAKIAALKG

[38] = molecular target: T38, P2-AA-1HAA-R; assay: two-hybrid library CCmax; settings: mean of both orientations
T38 chain: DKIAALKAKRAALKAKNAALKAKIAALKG

[39] = molecular target: T39, P2-AA-1HAA-I; assay: two-hybrid library CCmax; settings: mean of both orientations
T39 chain: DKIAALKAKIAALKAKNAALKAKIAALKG

[40] = molecular target: T40, P2-AA; assay: two-hybrid library CCmax; settings: mean of both orientations
T40 chain: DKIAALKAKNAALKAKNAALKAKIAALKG

[41] = molecular target: T41, P2-AA-1HAA-Y; assay: two-hybrid library CCmax; settings: mean of both orientations
T41 chain: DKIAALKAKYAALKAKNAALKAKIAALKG

[42] = molecular target: T42, P2-AA-1HAA-V; assay: two-hybrid library CCmax; settings: mean of both orientations
T42 chain: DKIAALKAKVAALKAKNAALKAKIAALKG

[43] = molecular target: T43, 4H1899-bN; assay: two-hybrid library CCNG1
T43 chain: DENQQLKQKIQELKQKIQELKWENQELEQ

[44] = molecular target: T44, 4H470-bH; assay: two-hybrid library CCNG1
T44 chain: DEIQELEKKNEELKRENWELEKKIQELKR

[45] = molecular target: T45, 4H344-bH; assay: two-hybrid library CCNG1
T45 chain: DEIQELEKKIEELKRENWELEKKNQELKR

[46] = molecular target: T46, 4H2568-bH; assay: two-hybrid library CCNG1
T46 chain: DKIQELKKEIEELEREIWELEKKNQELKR

[47] = molecular target: T47, 4H1406-bH; assay: two-hybrid library CCNG1
T47 chain: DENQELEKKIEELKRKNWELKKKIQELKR

[48] = molecular target: T48, 4H1193-bH; assay: two-hybrid library CCNG1
T48 chain: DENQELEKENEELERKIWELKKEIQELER

[49] = molecular target: T49, 4H3961-bH; assay: two-hybrid library CCNG1
T49 chain: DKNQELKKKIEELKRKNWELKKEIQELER

[50] = molecular target: T50, 4H2745-bH; assay: two-hybrid library CCNG1
T50 chain: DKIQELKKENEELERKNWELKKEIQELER

[51] = molecular target: T51, 4H4038-bH; assay: two-hybrid library CCNG1
T51 chain: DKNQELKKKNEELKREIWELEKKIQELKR

[52] = molecular target: T52, 4H3601-bH; assay: two-hybrid library CCNG1
T52 chain: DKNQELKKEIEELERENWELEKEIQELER

[53] = molecular target: T53, 4H363-bH; assay: two-hybrid library CCNG1
T53 chain: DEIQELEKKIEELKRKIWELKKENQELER

[54] = molecular target: T54, 4H1072-bH; assay: two-hybrid library CCNG1
T54 chain: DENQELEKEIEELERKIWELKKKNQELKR

[55] = molecular target: T55, 4H1387-bH; assay: two-hybrid library CCNG1
T55 chain: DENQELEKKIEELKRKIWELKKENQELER

[56] = molecular target: T56, 4H3907-bH; assay: two-hybrid library CCNG1
T56 chain: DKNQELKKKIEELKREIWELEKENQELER

[57] = molecular target: T57, 4H3297-bN; assay: two-hybrid library CCNG1
T57 chain: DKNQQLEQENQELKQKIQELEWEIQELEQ

[58] = molecular target: T58, 4H3592-bH; assay: two-hybrid library CCNG1
T58 chain: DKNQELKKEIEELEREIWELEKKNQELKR

[59] = molecular target: T59, 4H2619-bH; assay: two-hybrid library CCNG1
T59 chain: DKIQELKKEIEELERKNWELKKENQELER

[60] = molecular target: T60, P2-AA-1HAA-K; assay: two-hybrid library CCmax; settings: mean of both orientations
T60 chain: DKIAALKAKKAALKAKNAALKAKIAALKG

[61] = molecular target: T61, P2-AA-1HAA-D; assay: two-hybrid library CCmax; settings: mean of both orientations
T61 chain: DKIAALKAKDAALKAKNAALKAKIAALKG

DEIQQLEQENQELEQENQELEWEIQELEQ [4H145-bN]
interaction score [1]: 2.01
interaction score [2]: -2.65
interaction score [3]: -1.25
interaction score [4]: -0.87
interaction score [5]: -1.49
interaction score [6]: -0.916
interaction score [7]: -0.563

DENAALEAKIAALKAEIAALEAENAALEG [Core_NIIN-es_EKEE]
interaction score [8]: 1.84

DENKQLEQEIQRLEQEIQRLEWKNQKLKQ [P11A-bP]
interaction score [9]: 0
interaction score [10]: -0.677
interaction score [11]: 1.42
interaction score [12]: -2.06
interaction score [13]: 0.201
interaction score [14]: -0.08
interaction score [15]: -2.11
interaction score [16]: 0.853
interaction score [17]: -0.486
interaction score [18]: -0.091
interaction score [19]: -0.431

DKNQQLKQENQELEQKIQELKWKIQELKQ [O10-bN]
interaction score [20]: -0.104
interaction score [21]: -1.87
interaction score [22]: -0.625
interaction score [23]: 0.186
interaction score [24]: 0.648
interaction score [25]: 0.129
interaction score [26]: -0.552
interaction score [27]: 1.38
interaction score [28]: 0.523
interaction score [29]: 0.28
interaction score [30]: -0.783
interaction score [31]: -0.514
interaction score [32]: -0.398
interaction score [33]: 0.569
interaction score [34]: -1.59

DEIAALEAEIAALEAENAALEAEIAALEG [P1-AA-1HAA-I]
interaction score [35]: 2.03
interaction score [36]: 1.91
interaction score [37]: 1.82
interaction score [38]: 2.06
interaction score [39]: 2.11
interaction score [40]: 2.21
interaction score [41]: 2.08
interaction score [42]: 1.69

DENQELEKEIEELERKIWELKKKNQELKR [4H1072-bH]
interaction score [43]: 1.84
interaction score [44]: -1.58
interaction score [45]: 1.31
interaction score [46]: -0.817
interaction score [47]: 0.174
interaction score [48]: 0.426
interaction score [49]: 0.132
interaction score [50]: -0.184
interaction score [51]: 0.634
interaction score [52]: 0.621
interaction score [53]: 0.487
interaction score [54]: 0.311
interaction score [55]: 1.17
interaction score [56]: 1.52
interaction score [57]: 0.827
interaction score [58]: 2.09
interaction score [59]: 1.65

DEIAALEAERAALEAENAALEAEIAALEG [P1-AA-1HAA-R]
interaction score [35]: 1.28
interaction score [36]: 1.95
interaction score [60]: 0.734
interaction score [37]: 0.63
interaction score [61]: 0.454
interaction score [38]: 1.34
interaction score [39]: 1.99
interaction score [40]: 1.76
interaction score [41]: 1.63
interaction score [42]: 2.29

DKNKQLKQENQRLEQKIQRLKWKIQKLKQ [P10A-bP]
interaction score [9]: -0.83
interaction score [10]: 1.25
interaction score [11]: -1.01
interaction score [12]: -1.19
interaction score [13]: -1.35
interaction score [14]: -0.87
interaction score [15]: -0.806
interaction score [17]: -1.7
interaction score [18]: -1.01
interaction score [19]: 0.96
